# B1: Chromatin-associated protein swi6 (Schizosaccharomyces pombe (strain ATCC 38366 / 972)), P40381 (parent)
# chain: MKKGGVRSYRRSSTSKRSVIDDDSEPELPSMTKEAIASHKADSGSSDNEVESDHESKSSSKKLKENAKEEEGGEEEEEDEYVVEKVLKHRMARKGGGYEYLLKWEGYDDPSDNTWSSEADCSGCKQLIEAYWNEHGGRPEPSKRKRTARPKKPEAKEPSPKSRKTDEDKHDKDSNEKIEDVNEKTIKFADKSQEEFNENGPPSGQPNGHIESDNESKSPSQKESNESEDIQIAETPSNVTPKKKPSPEVPKLPDNRELTVKQVENYDSWEDLVSSIDTIERKDDGTLEIYLTWKNGAISHHPSTITNKKCPQKMLQFYESHLTFRENE
# partner: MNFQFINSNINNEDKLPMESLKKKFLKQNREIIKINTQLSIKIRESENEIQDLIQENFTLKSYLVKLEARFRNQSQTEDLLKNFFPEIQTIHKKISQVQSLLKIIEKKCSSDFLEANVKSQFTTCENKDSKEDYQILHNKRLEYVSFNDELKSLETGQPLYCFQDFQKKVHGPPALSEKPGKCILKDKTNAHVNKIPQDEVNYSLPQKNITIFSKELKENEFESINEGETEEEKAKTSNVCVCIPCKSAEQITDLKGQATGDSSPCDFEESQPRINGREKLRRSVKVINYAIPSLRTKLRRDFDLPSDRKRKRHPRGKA
# B2: Shugoshin-1 (Schizosaccharomyces pombe (strain ATCC 38366 / 972)), Q9P7A0 (parent)
# chain: B1 partner
# partner: B1 chain
# Variants of: B1
# Conditions: with sgo1_schpo sgo1, Q9P7A0
row,Variant,effect of a mutation on the interaction
1,MKKGGVRSYRRSSTSKRSVIDDDSEPELPSMTKEAIASHKADSGSSDNEVESDHESKSSSKKLKENAKEEEGGEEEEEDEYVVEKVLKHRMARKGGGYEYLLKWEGYDDPSDNTWSSEADCSGCKQLIEAYWNEHGGRPEPSKRKRTARPKKPEAKEPSPKSRKTDEDKHDKDSNEKIEDVNEKTIKFADKSQEEFNENGPPSGQPNGHIESDNESKSPSQKESNESEDIQIAETPSNVTPKKKPSPEVPKLPDNRELTVKQVENYDSWEDLVSSIDTIERKDDGTLEIYLTWKNGAISHHPSTITNKKCPQKMLQFYESHLTARENE [F324A],disrupting interaction strength

# Variants of: B2
# Conditions: with swi6_schpo swi6, P40381
row,Variant,effect of a mutation on the interaction
1,MNFQFINSNINNEDKLPMESLKKKFLKQNREIIKINTQLSIKIRESENEIQDLIQENFTLKSYLVKLEARFRNQSQTEDLLKNFFPEIQTIHKKISQVQSLLKIIEKKCSSDFLEANVKSQFTTCENKDSKEDYQILHNKRLEYVSFNDELKSLETGQPLYCFQDFQKKVHGPPALSEKPGKCILKDKTNAHVNKIPQDEVNYSLPQKNITIFSKELKENEFESINEGETEEEKAKTSNVCECIPCKSAEQITDLKGQATGDSSPCDFEESQPRINGREKLRRSVKVINYAIPSLRTKLRRDFDLPSDRKRKRHPRGKA [V242E],disrupting interaction strength

# From IntAct's records for PubMed 18716626
